The target in test [1] is T1, full length mouse DDR2 (stably expressed on Ba/F3 cell line) (mouse, UniProt Q62371 22-854).
T1 construct: also called moDDR2
T1 sequence: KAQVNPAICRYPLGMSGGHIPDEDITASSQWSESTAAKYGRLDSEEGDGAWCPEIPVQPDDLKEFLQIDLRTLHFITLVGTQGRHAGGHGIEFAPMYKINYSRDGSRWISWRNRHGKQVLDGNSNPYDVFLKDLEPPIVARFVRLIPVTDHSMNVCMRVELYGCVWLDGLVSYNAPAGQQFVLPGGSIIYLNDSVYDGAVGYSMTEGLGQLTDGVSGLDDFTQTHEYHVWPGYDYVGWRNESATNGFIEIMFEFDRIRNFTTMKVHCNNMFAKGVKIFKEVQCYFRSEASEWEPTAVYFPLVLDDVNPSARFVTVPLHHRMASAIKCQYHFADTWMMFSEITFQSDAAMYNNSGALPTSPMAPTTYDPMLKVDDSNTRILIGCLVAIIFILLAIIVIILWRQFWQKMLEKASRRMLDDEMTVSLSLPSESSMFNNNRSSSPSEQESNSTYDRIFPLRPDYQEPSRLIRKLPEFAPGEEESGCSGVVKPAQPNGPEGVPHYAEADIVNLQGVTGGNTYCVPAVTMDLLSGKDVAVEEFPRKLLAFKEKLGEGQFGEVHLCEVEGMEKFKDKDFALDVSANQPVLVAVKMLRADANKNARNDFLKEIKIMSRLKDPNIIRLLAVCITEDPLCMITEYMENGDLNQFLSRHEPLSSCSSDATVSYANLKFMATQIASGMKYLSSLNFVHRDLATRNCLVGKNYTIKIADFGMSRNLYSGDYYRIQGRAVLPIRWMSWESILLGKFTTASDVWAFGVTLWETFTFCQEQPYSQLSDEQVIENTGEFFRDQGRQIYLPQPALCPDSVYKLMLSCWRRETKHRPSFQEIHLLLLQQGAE
Put plainly: flow cytometry on Ba/F3 cells expressing full length mouse DDR2, one-arm format. The procedure:
Mean Fluorescent Intensity (MFI) of each antibody was measured by flow cytometry using Ba/F3 cell line that stably expresses full length mouse DDR2. Names under the horizontal axis are names of the tested antibodies. IC17dK is an anti-KLH antibody used as a negative control.
To determine antibody binding to mouse DDR2, flow cytometry analysis was carried out by using mouse-DDR2-stably-expressing Ba/F3 cell line. One-arm format antibodies, which contains one antibody variable region in each molecule, were prepared to evaluate the binding by affinity mode.
On the technique in general: Flow cytometry measures light scatter and fluorescence of single cells or particles in a stream.

For test [2], the target named is T2, mouse DDR2 delta DSL-EJXM (stably expressed on Ba/F3 cell line) (mouse, UniProt Q62371 22-854).
T2 construct: Full length mouse DDR2 with Gln201-Val393 deleted; also called mouse DDR2 fragment with DSL domain and EJXM region (Gln201-Val393) deleted
T2 sequence: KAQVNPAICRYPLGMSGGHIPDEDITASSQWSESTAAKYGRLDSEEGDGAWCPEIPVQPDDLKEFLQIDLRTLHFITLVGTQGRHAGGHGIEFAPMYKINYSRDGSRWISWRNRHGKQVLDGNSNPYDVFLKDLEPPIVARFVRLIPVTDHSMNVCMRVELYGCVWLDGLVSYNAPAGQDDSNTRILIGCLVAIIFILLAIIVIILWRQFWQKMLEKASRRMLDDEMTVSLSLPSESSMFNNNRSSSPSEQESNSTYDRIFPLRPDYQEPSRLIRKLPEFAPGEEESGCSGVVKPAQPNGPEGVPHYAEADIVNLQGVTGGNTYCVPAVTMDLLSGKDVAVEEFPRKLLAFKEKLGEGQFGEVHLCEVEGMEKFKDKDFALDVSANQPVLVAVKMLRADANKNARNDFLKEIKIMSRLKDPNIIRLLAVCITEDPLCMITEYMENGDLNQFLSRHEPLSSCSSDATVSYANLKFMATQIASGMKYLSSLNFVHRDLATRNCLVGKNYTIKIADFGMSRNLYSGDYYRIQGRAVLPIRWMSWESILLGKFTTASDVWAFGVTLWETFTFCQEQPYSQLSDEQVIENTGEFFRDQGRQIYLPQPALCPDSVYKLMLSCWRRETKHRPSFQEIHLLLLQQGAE
Kind of test: flow cytometry on Ba/F3 cells expressing mouse DDR2 delta DSL-EJXM. The procedure: Mean Fluorescent Intensity (MFI) of each antibody was measured by flow cytometry using Ba/F3 cell line that stably expresses mouse DDR2 fragment in which Discoidin-like (DSL) domain and extracellular juxtamembrane (EJXM) region were deleted from full length mouse DDR2 (mouse DDR2 delta DSL-EJXM). Names under the horizontal axis are names of the tested antibodies. IC17dK is an anti-KLH antibody used as a negative control.
To map more detailed binding epitope of anti-DDR2 antibodies, fragment of mouse DDR2, in which discoidin-like (DSL) domain and extracellular juxtamembrane (EJXM) region (Gln201-Val393) are deleted from full length mouse DDR2 (mouse DDR2 delta DSL-EJXM) was made. Mouse DDR2 delta DSL-EJXM stably-expressing Ba/F3 cell line was prepared. Binding of the antibodies to this cell line was measured by flow cytometry and MFI value was acquired. Epitope of antibodies which can bind to full length mouse DDR2 but not to mouse DDR2 delta DSL-EJXM would be DSL-EJXM region. Epitope of antibodies which can bind to both full length mouse DDR2 and mouse DDR2 delta DSL-EJXM would be discoidin (DS) domain. In Table2, “Yes” means that tested antibody can bind to the cell line and “No” means that antibody cannot bind to the cell line.

B1: DAB0071 (antibody, V domains shown)
VH: QSLEESGGRLVTPGGSLTLTCTASGFSLSAYYMQWVRQAPGKGLEWIGWINTGGSAYYPSWARGRFTISKTSTTVDLKITSPTTEDTATYFCARSDASVHQFNLWGQGTLVTVSS
VL: DVVMTQTPASVEAAVGGTVTIKCQASESIGNALAWYQQRPGQPPKLLIYYASTLESGVPSRFKGSGSGTEFTLTISDLECADAATYYCQCTYGSGSSRGNAFGGGTKVEIK
notes: Variable regions from immunized rabbits
With B1, the binding result in test [1] is listed as “binds”; in test [2], “no binding”.

B2: DAB0052 (antibody, V domains shown)
VH: QSVEESGGRLVTPGTPLTLTCTVSGFSLNRYTGIWVRQAPGKGLEWIGIISSDDRTWYASWAKGRFTISKTSTTVDLKITSPTIEDTATYFCARDVGGDSWFWGLWGQGTLVTVSS
VL: DIVMTQTPASVEAAVGGTVTIKCQASQSISSWLAWYQQKPGQPPKLLIYYASTLASGVPSRFSGSGSGTEFTLTISDLECADAATYYCQSNYYSSSNSNYGHAFGGGTKVEIK
notes: as for B1
B2: the binding result in test [1] was “binds”; in test [2], “no binding”.

B3: DAB0009 (antibody, V domains shown)
VH: QSVEESGGRLVTPGTPLTLTCAVSGFSLNSHVMGWVRQAPGRGLECIGIIAVSGDIYYANWAKGRFTISKTSTTVDLRITSPTTEDTATYFCGSPTVINNNNLWGQGTLVTVSS
VL: AQVLTQTASPVSAAVGGTVTINCQSSQNVYGNNYLSWFQQKPGQPPKLLIYSTSTLASGVSSRFKGSGSGTQFTLTISDLECADAATYYCLGGYDCNIVDCRAFGGGTKVEIK
notes: as for B1
Take B3: the binding result in test [1] is given as “binds”; in test [2] it was “no binding”.

For the origin of these results see patent publication US20240270853A1 (Chugai, published 2024).
